The source of these data is article PMC2377106 (2003).

The target of assay [1] is T1, VEGFR2(ΔKD)m -20-809 (Homo sapiens, UniProt P35968).
T1 chain: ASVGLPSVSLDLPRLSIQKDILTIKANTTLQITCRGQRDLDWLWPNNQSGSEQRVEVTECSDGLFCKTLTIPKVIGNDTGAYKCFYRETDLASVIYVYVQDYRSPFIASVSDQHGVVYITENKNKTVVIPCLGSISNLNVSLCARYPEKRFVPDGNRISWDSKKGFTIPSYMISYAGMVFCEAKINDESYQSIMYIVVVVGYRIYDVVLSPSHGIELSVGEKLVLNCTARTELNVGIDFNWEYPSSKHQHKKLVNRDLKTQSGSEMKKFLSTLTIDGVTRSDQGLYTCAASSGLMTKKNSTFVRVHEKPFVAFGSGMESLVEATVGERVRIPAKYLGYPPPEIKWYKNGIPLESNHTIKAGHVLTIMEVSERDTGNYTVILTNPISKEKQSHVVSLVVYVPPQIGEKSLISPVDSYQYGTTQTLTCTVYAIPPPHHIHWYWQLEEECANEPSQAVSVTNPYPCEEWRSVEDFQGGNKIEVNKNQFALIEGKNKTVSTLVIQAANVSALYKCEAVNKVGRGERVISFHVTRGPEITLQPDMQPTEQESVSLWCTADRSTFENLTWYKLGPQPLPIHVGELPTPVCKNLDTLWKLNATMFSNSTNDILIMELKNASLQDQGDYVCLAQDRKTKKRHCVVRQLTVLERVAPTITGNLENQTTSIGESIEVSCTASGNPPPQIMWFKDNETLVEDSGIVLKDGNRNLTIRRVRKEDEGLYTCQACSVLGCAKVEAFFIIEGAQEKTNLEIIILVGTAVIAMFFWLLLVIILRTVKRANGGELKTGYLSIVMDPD
Description: solid-phase radioligand binding.

The target in assay [2] is T1, VEGFR2(ΔKD)m -20-809. Description: competition RIA.
Assay [3] concerns the target T1, VEGFR2(ΔKD)m -20-809. The assay is described as follows: ELISA. Background: ELISA stands for enzyme-linked immunosorbent assay.

B1: [125I]VEGF (protein)
chain: MTDRQTDTAPSPSYHLLPGRRRTVDAAASRGQGPEPAPGGGVEGVGARGVALKLFVQLLGCSRFGGAVVRAGEAEPSGAARSASSGREEPQPEEGEEEEEKEEERGPQWRLGARKPGSWTGEAAVCADSAPAARAPQALARASGRGGRVARRGAEESGPPHSPSRRGSASRAGPGRASETMNFLLSWVHWSLALLLYLHHAKWSQAAPMAEGGGQNHHEVVKFMDVYQRSYCHPIETLVDIFQEYPDEIEYIFKPSCVPLMRCGGCCNDEGLECVPTEESNITMQIMRIKPHQGQHIGEMSFLQHNKCECRPKKDRARQEKKSVRGKGKGQKRKRKKSRYKSWSVPCGPCSERRKHLFVQDPQTCKCSCKNTDSRCKARQLELNERTCRCDKPRR
modifications: 125I-labelled VEGF
B1 displayed a Kd in the assay with VEGFR2(ΔKD)m -20-809 [1] of 0.51 nM.

B2: VEGF161-CPG2(Q)3-H6 1-161 (protein)
chain: MTDRQTDTAPSPSYHLLPGRRRTVDAAASRGQGPEPAPGGGVEGVGARGVALKLFVQLLGCSRFGGAVVRAGEAEPSGAARSASSGREEPQPEEGEEEEEKEEERGPQWRLGARKPGSWTGEAAVCADSAPAARAPQALARASGRGGRVARRGAEESGPPH
modifications: fusion to N-terminus of CPG2(Q)3 (aa 23-415), H6 tag
As for B2, the figures for the Kd with VEGFR2(ΔKD)m -20-809 [2] and with VEGFR2(ΔKD)m -20-809 [3] were 3.3 nM and 1.06 nM, respectively.

B3: VEGF115-CPG2(Q)3-H6 1-115 (protein)
chain: MTDRQTDTAPSPSYHLLPGRRRTVDAAASRGQGPEPAPGGGVEGVGARGVALKLFVQLLGCSRFGGAVVRAGEAEPSGAARSASSGREEPQPEEGEEEEEKEEERGPQWRLGARK
modifications: fusion to N-terminus of CPG2(Q)3 (aa 23-415), H6 tag
As for B3, the dissociation constant Kd was 9.6 nM with VEGFR2(ΔKD)m -20-809 [2] and 0.51 nM in the assay with VEGFR2(ΔKD)m -20-809 [3].

B4: CPG2(Q)3-VEGF109-H6 1-109 (protein)
chain: MTDRQTDTAPSPSYHLLPGRRRTVDAAASRGQGPEPAPGGGVEGVGARGVALKLFVQLLGCSRFGGAVVRAGEAEPSGAARSASSGREEPQPEEGEEEEEKEEERGPQW
modifications: fusion to C-terminus of CPG2(Q)3 (aa 23-415), H6 tag
As to B4, the Kd turned out to be 1.3 nM with VEGFR2(ΔKD)m -20-809 [2] and 0.75 nM with VEGFR2(ΔKD)m -20-809 [3].

A word on the Kd: it is the free concentration of one partner at which half of the binding sites on the other are occupied at equilibrium, for simple one-to-one binding.
